B1: WSB1 (parent)
chain: FSHDGLHVASLADDKMVRFWRIDE
B2: SNX8 (parent)
chain: LHQETQLIHVYLPLTSHILRAFVN

Variants of: B1
Assay: protein stability index of a GFP-peptide fusion (GPS, HEK-293T) (PSI 1-6); higher = more stable
Details: c terminus: a fixed tail appended
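Also: lentivirally expressed fusions sorted by FACS into six bins by GFP to DsRed ratio, PSI derived from sequencing read proportions per bin multiplied by bin number.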

Protein stability index of substitutions, site by site:
V17: G 1.03
D14: I 3.14
D4: H 1.43
R21: C 3.2
V8: D 1.88 | G 1.75
L11: A 2.24
A12: G 3.04

Variants of: B2
Assay: as above
Details: c terminus: a fixed tail appended

Protein stability index, by site and new letter:
E4: H 1.82 | I 2.46 | W 1.8 | Q 3.2 | P 2.18 | K 4.66 | G 2.64 | N 3.07 | F 2.34 | R 2.25 | V 3.22 | Y 2.38 | M 2.04 | L 2.8 | T 1.4
N24: Y 2.88 | Q 2.93 | L 2.37 | A 2.76 | K 2.06 | T 2.16 | F 3.69 | D 2.94 | H 5.51 | V 3.76 | S 2.59
P13: L 3.99 | T 2.91 | M 2.55 | A 3.59 | V 1.85 | D 2.7 | H 1.38 | R 2.29 | I 1.9 | Q 2.68 | S 3 | Y 1.95 | W 3.14 | K 1.72
L7: G 2.15 | Q 2.71 | M 2.9 | D 2.17 | A 2.53 | R 4 | T 3.64 | N 2.1 | Y 1.91 | E 1.87 | I 2.73 | H 1.98 | C 2.44 | S 2.37 | P 3.31 | K 2.32
I8: G 1.42 | K 2.3 | A 2.03 | R 1.78 | L 1.67 | M 3.01 | D 2.22 | V 1.45 | Q 1.68 | S 2.03 | E 2.44 | Y 4.04 | F 2.5 | P 1.65 | W 2.6 | N 2.09 | C 2.87 | T 2.1
F22: N 1.92 | V 2.75 | P 3.46 | I 1.79 | L 2.39 | H 1.96 | Y 4.5 | R 2.4 | G 2.88 | K 2.21 | M 1.52 | C 3.79 | D 2.12 | S 2.14 | Q 2.57
L12: Y 3.18 | D 2.19 | N 2.08 | T 2.49 | M 2.71 | E 1.83 | Q 3.42 | G 3.44 | H 3.23 | R 2.48 | K 2.29 | S 1.7 | P 2.21 | F 2.58 | W 3.2 | V 1.91 | C 2.52
I18: D 2.65 | Y 2.39 | W 2.33 | P 3.99 | F 1.93 | V 3.55 | C 3.75 | A 1.85 | G 1.71 | M 1.88 | Q 2.27 | K 1.97 | N 1.79 | T 2.89 | R 2.44 | S 3.95 | L 3.11 | H 2.63
Q6: M 2.2 | S 2.04 | G 2.55 | D 2.01 | I 2.75 | F 2.33 | E 2.88 | V 3.73 | C 2.63 | R 3.29 | L 3.52 | P 2.41 | H 2.75 | N 1.6 | W 3.31 | K 1.7
S16: M 2 | W 2.31 | Y 2.08 | K 2.77 | A 1.94 | E 2.16 | Q 2.5 | C 2.36 | I 1.47 | R 2.83 | N 2.52 | H 1.82 | V 1.81 | L 2.08
V10: E 2.87 | N 1.88 | A 1.19 | G 1.51 | P 1.76 | R 2.21 | T 1.73 | W 2.2 | D 1.87 | H 1.66 | S 2.33 | M 2.22 | K 1.23 | Q 1.71 | Y 2.24
L14: P 2.64 | Q 3.75 | M 2.41 | Y 1.58 | V 3.59 | S 2 | A 2.98 | R 2.49 | H 2.13 | F 1.31 | C 3.23 | N 4.27 | W 1.8 | G 3.49 | K 3.14 | D 2.72 | T 2.29
R20: V 1.72 | I 2.9 | G 3.27 | P 3 | M 3.04 | L 3.82 | T 1.72 | H 2.95 | C 2.94 | Y 3.11 | Q 1.89 | D 1.93 | N 3.03 | A 3.61
H9: M 2.9 | P 2.22 | S 2.4 | Y 3.11 | W 2.31 | E 1.65 | V 3.08 | K 1.43 | C 3.65 | T 2.96 | N 2.43 | A 2.16 | G 3.08 | I 2.82 | L 3.18
T15: I 2.85 | N 3.74 | V 4.03 | G 1.2 | K 3.35 | Y 1.79 | W 2.9 | L 1.86 | M 1.58 | Q 1.75 | C 2.46 | P 2.3 | D 3.4 | F 1.58 | H 3.58 | A 2.23 | R 2.25
V23: L 2.22 | E 2.79 | Q 2.27 | M 2.4 | Y 3.02 | F 2.14 | A 3.31 | S 2 | D 2.39 | H 2.58 | W 3.24 | P 2.03 | I 1.96 | T 3.16
T5: D 1.78 | Y 1.85 | A 2.03 | M 2.39 | V 4.08 | P 1.66 | W 2.22 | E 1.98 | H 2.17 | C 3.39 | N 3.51 | F 2.83 | G 2.26 | L 3.03 | I 3.8 | R 2.75
H17: T 1.85 | C 1.58 | L 1.69 | Y 2.6 | V 1.92 | I 2.46 | A 2.06 | M 2.52 | R 2.42 | W 3.19 | G 1.77 | N 2.47 | S 3.54 | D 2.58 | E 2.75 | P 2.34 | Q 2.97 | F 3.82
L19: V 4.01 | Y 3.67 | S 2.3 | N 1.99 | I 3.22 | T 1.84 | P 3.45 | C 2.66 | W 1.57 | F 3.61 | H 2.24 | G 3.75 | E 2.23 | Q 5.08 | K 2.47 | D 1.52 | A 2.99
Y11: L 2.05 | Q 3.1 | R 1.86 | C 3.22 | P 2.78 | F 2.14 | S 1.91 | T 1.89 | K 2.95 | G 2.29 | N 2.81 | M 3.64 | D 1.47 | A 2.63 | V 1.99
A21: R 2.63 | N 3.01 | W 2.18 | T 1.84 | I 3.77 | C 2.73 | D 2.8 | Q 2.01 | K 2.03 | M 3.49 | Y 2.35 | E 2.48 | P 2.84 | F 1.38
